The experiment has as its target T1, 上皮細胞増殖因子レセプター(EGFR) (UniProt P00533 25-1210, limits assumed).
T1 construct: whole, on cells; The antigen is formalin-fixed A431 cells; also called EGF レセプター; EGFレセプター
Briefly: competition ELISA with HRP-labelled B4G7 on formalin-fixed A431 cells.

The text below walks through data of patent JP2001333780A (dated 2001).

B1: CaC 型 ヒト型一本鎖抗体 (scFv)
scFv: MGHHHHHHQVQLVQSGAEVKKPGASVKVSCKASGFNIKDTLMHWVRQAPGQGLEWMGWIDPEDGNTKYVRKFQGRVTMTRDTSTSTVYMELSSLRSEDTAVYYCARGGSYGNWAYWGQGTTVTVSSGGGGSGGGGSGGGGSDIQMTQSPSSLSASVGDRVTITCRTSENIYSYFAWYQQKSGKAPKLLIYNAKTLAEGVPSRFSGSGSGTEFTLTISSLQPEDFATYFCQHHYGSLHTFGGGTTVDIKHHHHHHGGGS
notes: Humanised scFv with VH of Ca type and VL of C type
As to B1, the binding result was “binds”.

B2: 一本鎖scBH抗体 (scFv)
chain: QVQLQQSGAELVRPGASVKLSCTASGFNIKDTLMHWVKQRPEQGLEWIGWIDPEDGNTKYVRKFQGKATITADTSSNTAYLQVSSLTSEDTAIYYCVRGGSYGNWAYWGQGTTVTVSSDIELTQSPASLSASVGETVTITCRTSENIYSYFAWYQQKQGKSPHLLVYNAKTLAEGVPSRFSGSGSGTQFSLKINSLQPEDFGIYFCQHHYGSLHTFGGGTKLEIK
For the molecule B2, the “抗体一価あたりの結合力 (relative to B4G7抗体)” value was ~0.33 fold of B4G7 antibody, per antibody valence.
